From patent US20050154189A1 (MAXYGEN, published 2005)
Values belong to the binder of their own block, whether it stands above or below them.

How the values were obtained:
[1] = biological target: T1, Soluble CTLA-4-Ig (human, UniProt P16410 36-161, FITC-conjugated in the two-colour FACS assays; unlabelled and detected with FITC goat anti-human IgG in the concentration-dependent assay); assay: FACS of transfected cells, Round 1 clones
T1 construct: extracellular domain; Bought from R&D Systems; also called sCTLA-4-Ig; CTLA-4-Ig Fc; not shown: Fc portion of human IgG1
T1 sequence (P16410 36-161): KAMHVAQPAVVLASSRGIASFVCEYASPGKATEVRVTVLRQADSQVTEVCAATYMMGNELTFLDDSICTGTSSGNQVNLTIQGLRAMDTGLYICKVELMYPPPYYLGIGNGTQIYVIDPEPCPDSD

[2] = biological target: T2, Soluble CD28-Ig (human, UniProt P10747 19-152, biotin-conjugated (NHS-biotin) in the labelled-ligand FACS assays); assay: two-colour FACS profile on transfected cells; score of preference for CD28-Ig over CTLA-4-Ig vs WT hB7-1
T2 construct: extracellular domain; Bought from R&D Systems; also called sCD28-Ig; CD28-Ig Fc; not shown: Fc portion of human IgG1

[3] = biological target: human CD28 receptor (human, UniProt P10747 19-220); assay: cell-based or functional assay
[4] = biological target: T2, Soluble CD28-Ig; assay: receptor binding assay, data not shown
[5] = biological target: T1, Soluble CTLA-4-Ig; assay: receptor binding assay, data not shown
[6] = biological target: T2, Soluble CD28-Ig; assay: two-colour FACS on transfected 293 cells
Description: (§1) Biotin binds the fluorescence marker Streptavidin-PE. (R-PE has an excitation maximum of 565 nanometers (nm) and an emission maximum of 578 nm. B-PE has excitation and emission maxima of 545 nm and 578 nm, respectively. FITC has excitation and emission maxima of 494 and 519, respectively.) The cells were again washed twice and resuspended in 200 μl medium with 5 μg/ml propidium iodide (PI). The cells were then analyzed using a FACSCalibur flow cytometer and CellQuest software (BDIS, San Jose, Calif.). Cell sorting was performed by flow-cytometry based cell sorting screening methods using FACS (Fluorescence-Activated Cell Sorting) Vantage SE cell sorter (BDIS) (Becton Dickinson; San Jose, Calif.). The staining concentration was determined for each labeled protein to provide a maximal Mean Fluorescence Intensity (MFI) and minimal background signal (e.g., optimum staining concentration was the concentration per 10⁶ cells).

[7] = biological target: T1, Soluble CTLA-4-Ig; assay: two-colour FACS on transfected 293 cells
Description: as §1

B1: Round 1 CD28BP-84 (ligand)
chain: GISQVTKSVKEMAALSCDYNISIDELARMRIYWQKDQQMVLSIISGQVEVWPEYKNRTFPDIINNLSLMILALRLSDKGTYTCVVQKNENGSFRREHLTSVTLSIRADSPVPSITDIGHPAPNVKRIRCSASGGFPEPRLAWMEDGEELNAVNTTVDQDLDTELYSVSSELDFNVTNNHSIVCLIKYGELSVSQIFPWSKPKQEPPIDQLPFWVIIPVSGALVLTAVVLYCLACRHVARWKRTRRNEETVGTERLSPIYLGSAQSSG
notes: also called R1clone 84; Clone 84
- binding result [1]: binds
- Binding Score [2]: 1

B2: Round 1 CD28BP-118 (ligand)
chain: GISQVTKSVKEMAALSCDYNISIDELARMRIYWQKDQQMVLSIISGQVEVWPEYKNRTFPDIINNLSLMILALRLSDKGTYTCVVQKNENGSFRREHLTSVTLSIRADFPVPSITDIGHPAPNVKRIRCSASGDFPEPRLAWMEDGEELNAVNTTVDQDLDTELYSVSSELDFNVTNNHSIVCLIKYGELSVSQIFPWSKPKQEPPIDQLPFWVIIPVSGALVLTAVVLYCLACRHVARWKRTRRNEETVGTERLSPIYLGSAQSSG
notes: also called R1clone 118; Clone 118
- binding result [1]: binds
- Binding Score [2]: 1

B3: Round 2 CD28F11-8 (ligand)
chain: ITPKSVTKRVKETVMLSCDYNTSTEELTSLRIYWQKDSKMVLAILPGKVQVWPEYKNRTITDMNDNPRIVILALRLSDSGTYTCVIQKPVLKGAYKLEHLTSVRLMIRADFPVPTINDLGNPSPNIRRLICSTSGGFPRPHLYWLENGEELNATNTTLSQDPETKLYMISSELDFNMTSNLCLVKYGDLTVSQTFYWQESKPTPSANQHLTWTIIIPVSAFGISVIIAVILTCLTCRNAAIRRQRRENEVEMQSCSQSP
- Binding Score [2]: 0

B4: Round 2 CD28B4-5* (ligand)
chain: SGITPKSVTKRVKETVMLSCDYNTSTEELTSLRIYWQKDSKMVLAILPGKVQVWPEYKNRTITDMNDNPRIVILALRLSDKGTYTCVVQKPDLKGAYKLEHLASVRLMIRADFPVPSITDIGHPAPNVKRIRCSASGGFPEPRLAWMEDGEELNAVNTTVDQDLDTELYSVSSELDFNVTNNHSIVCLIKYGELSVSQIFPWSKPKQEPPIDQLPFWVIIPVSGALVLTAVVLYCLACRHVARWKRTRRNEETVGTERLSPIYLGSAQSSG
- Binding Score [2]: 0

B5: Round 2 CD28BP-15 (ligand)
chain: ITPKSVTKRVKETVMLSCDYNTSTEELTSLRIYWQKDSKMVLAILPGKVQVWPEYKNRTITDMNDNPRIVILALRPSDSGTYTCVIQKPVLKGAYKLEHLASVRLMIRADFPVPTINDLGNPSPNIRRLICSTSGGFPRPHLYWLENGEELNATNTTVSQDPGTELYMISSELDFNVTNNHSIVCLIKYGELSVSQIFPWSKPKQEPPIDQLPFWVIIPVSGALVLTAVVLYCLACRHVARWKRTRRNEETVGTERLSPIYLGSAQSSG
notes: Full-length clone on transiently or stably transfected 293 cells; The end 303 is the end of the entry as counted; also called R2 CD28BP-15; clone 15
- T cell proliferation (3H-thymidine incorporation) of purified human T cells with anti-CD3 mAbs [3]: ~10 fold
- Binding Score [2]: 2

B6: Round 2 CD28A2-5 (ligand)
chain: ITPKSVTKRVKETVMLSCDYNTSTEELTSLRIYWQKDSKMVLAILPGKVQVWPEYKNRTITDMNDNPRIVILALRLSDSGTYTCVIQKPDLKGAYKLEHLASVRLMIRADFPVPSITDIGHPAPNVKRIRCSASGGFPEPRLAWMEDGEELNAVNTTVDQDLDTELYSVSSELDFNMTSNHSFLCLVKYGDLTVSQTFYWQESKPTPSANQHLTWTIIIPVSAFGISVIIAVILTCLTCRNAAIRRQRRENEGKCKVLSVSIGTKLKFNR
- Binding Score [2]: 0

The next lines start with the values.

- binding result [4]: binds
- binding result [5]: binds
B7: Baboon B7-1 (ligand)
chain: VIHVTKEVKEVATLSCGHNVSVEELAQTRIYWQKEKKMVLTMMSGDMNIWPEYKNRTIFDITNNLSIVILALRPSDEGTYECVVLKYEKDAFKREHLAEVMLSVKADFPTPSITDFEIPPSNIRRIICSTSGGFPEPHLFWLENGEELNAINTTVSQDPGTELYTVSSKLDFNMTTNHSFVCLIKYGHLRVNQTFNWNTPKQEHFPDNLLPSWAITLISVNGIFVICCLTYCFAPRCRERRRNETLRRESVRPV
notes: Wild-type parental gene expressed on transfected 293 cells

- binding result [4]: binds
- binding result [5]: binds
B8: Orangutan B7-1 (ligand)
chain: VIHVTKEVKEVATLSCGHNVSVEELAQTRIYWQKEKKMVLTMMSGDMNIWPEYKNRTIFDITNNLSIVILALRPSDEGTYECVVLKYEKDAFKREHLAEVTLSVKADFPTPSISDFEIPTSNIRRMICSTSGGFPEPHLSWLENGEELNAISTTVSQDPETELYAVSSKLDFNMTTNHSFMCLIKYGHLRVNQTFNWNTPKQEHFPDNLLPSWAITLISVNGIFVICCLTYCFAPRCRERRSNERLRRESVRPV
notes: as for B7

- binding result [6]: binds
- binding result [7]: binds
B9: Rhesus B7-1 (ligand)
chain: VIHVTKEVKEVATLSCGHNVSVEELAQTRIYWQKEKKMVLTMMSGDMNIWPEYKNRTIFDITNNLSIVILALRPSDEGTYECVVLKYEKDAFKREHLAEVMLSVKADFPTPSITDFEIPPSNIRRIICSTSGGFPEPRLSWLENGEELNAISTTVSQDPETELYTVSSKLDFNMTTNHSFMCLIKYGHLRVNQTFNWNTPKQEHFPDNLLPSWAITLISVNGIFVICCLTHCFAPRCRERRRNETLRRESVRPV
notes: Wild-type parental gene expressed on transfected 293 cells; also called rhesus monkey B7-1
